Assay results: paper PMC12416549 (2024)

T1: TNFR1 (Homo sapiens, UniProt P19438)
T1 chain: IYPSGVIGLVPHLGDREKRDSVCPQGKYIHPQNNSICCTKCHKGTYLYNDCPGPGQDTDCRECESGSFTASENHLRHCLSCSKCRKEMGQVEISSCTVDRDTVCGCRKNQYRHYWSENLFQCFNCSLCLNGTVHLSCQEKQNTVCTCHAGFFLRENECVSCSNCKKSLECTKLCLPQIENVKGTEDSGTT


Molecular target: T1, TNFR1
Assay: yeast display SC50

apparent Kd (screen) [nM]	Binder
0.593	R97D (designed binder) MTLQELLREEALRRAEAEAFRYALELLAEKFPEQKEYLLDLAEEIESQIRSLSGVDVEDVRKFLDKEWAWVKELLAEHPAELAEVEAARAARLAELDAEVEAKVAA
0.539	R97M (designed binder) MTLQELLREEALRRAEAEAFRYALELLAEKFPEQKEYLLDLAEEIESQIRSLSGVDVEDVRKFLDKEWAWVKELLAEHPAELAEVEAARAARLAELMAEVEAKVAA
0.593	R14N (designed binder) MTLQELLREEALRNAEAEAFRYALELLAEKFPEQKEYLLDLAEEIESQIRSLSGVDVEDVRKFLDKEWAWVKELLAEHPAELAEVEAARAARLAELRAEVEAKVAA
0.869	A105I (designed binder) MTLQELLREEALRRAEAEAFRYALELLAEKFPEQKEYLLDLAEEIESQIRSLSGVDVEDVRKFLDKEWAWVKELLAEHPAELAEVEAARAARLAELRAEVEAKVIA
0.539	E99Q (designed binder) MTLQELLREEALRRAEAEAFRYALELLAEKFPEQKEYLLDLAEEIESQIRSLSGVDVEDVRKFLDKEWAWVKELLAEHPAELAEVEAARAARLAELRAQVEAKVAA
0.718	L82Y (designed binder) MTLQELLREEALRRAEAEAFRYALELLAEKFPEQKEYLLDLAEEIESQIRSLSGVDVEDVRKFLDKEWAWVKELLAEHPAEYAEVEAARAARLAELRAEVEAKVAA
24.4	L52D (designed binder) MTLQELLREEALRRAEAEAFRYALELLAEKFPEQKEYLLDLAEEIESQIRSDSGVDVEDVRKFLDKEWAWVKELLAEHPAELAEVEAARAARLAELRAEVEAKVAA
0.49	A42P (designed binder) MTLQELLREEALRRAEAEAFRYALELLAEKFPEQKEYLLDLPEEIESQIRSLSGVDVEDVRKFLDKEWAWVKELLAEHPAELAEVEAARAARLAELRAEVEAKVAA
2.48	L74T (designed binder) MTLQELLREEALRRAEAEAFRYALELLAEKFPEQKEYLLDLAEEIESQIRSLSGVDVEDVRKFLDKEWAWVKETLAEHPAELAEVEAARAARLAELRAEVEAKVAA
1.4	E67N (designed binder) MTLQELLREEALRRAEAEAFRYALELLAEKFPEQKEYLLDLAEEIESQIRSLSGVDVEDVRKFLDKNWAWVKELLAEHPAELAEVEAARAARLAELRAEVEAKVAA
0.304	R92Q (designed binder) MTLQELLREEALRRAEAEAFRYALELLAEKFPEQKEYLLDLAEEIESQIRSLSGVDVEDVRKFLDKEWAWVKELLAEHPAELAEVEAARAAQLAELRAEVEAKVAA
0.539	K62S (designed binder) MTLQELLREEALRRAEAEAFRYALELLAEKFPEQKEYLLDLAEEIESQIRSLSGVDVEDVRSFLDKEWAWVKELLAEHPAELAEVEAARAARLAELRAEVEAKVAA
0.718	P79C (designed binder) MTLQELLREEALRRAEAEAFRYALELLAEKFPEQKEYLLDLAEEIESQIRSLSGVDVEDVRKFLDKEWAWVKELLAEHCAELAEVEAARAARLAELRAEVEAKVAA
13.8	E44S (designed binder) MTLQELLREEALRRAEAEAFRYALELLAEKFPEQKEYLLDLAESIESQIRSLSGVDVEDVRKFLDKEWAWVKELLAEHPAELAEVEAARAARLAELRAEVEAKVAA
0.653	A69N (designed binder) MTLQELLREEALRRAEAEAFRYALELLAEKFPEQKEYLLDLAEEIESQIRSLSGVDVEDVRKFLDKEWNWVKELLAEHPAELAEVEAARAARLAELRAEVEAKVAA
0.869	L41V (designed binder) MTLQELLREEALRRAEAEAFRYALELLAEKFPEQKEYLLDVAEEIESQIRSLSGVDVEDVRKFLDKEWAWVKELLAEHPAELAEVEAARAARLAELRAEVEAKVAA
0.539	A17W (designed binder) MTLQELLREEALRRAEWEAFRYALELLAEKFPEQKEYLLDLAEEIESQIRSLSGVDVEDVRKFLDKEWAWVKELLAEHPAELAEVEAARAARLAELRAEVEAKVAA
0.49	Q34P (designed binder) MTLQELLREEALRRAEAEAFRYALELLAEKFPEPKEYLLDLAEEIESQIRSLSGVDVEDVRKFLDKEWAWVKELLAEHPAELAEVEAARAARLAELRAEVEAKVAA

apparent Kd (screen) [nM]	Binder
1.4	L39M (designed binder) MTLQELLREEALRRAEAEAFRYALELLAEKFPEQKEYLMDLAEEIESQIRSLSGVDVEDVRKFLDKEWAWVKELLAEHPAELAEVEAARAARLAELRAEVEAKVAA
0.653	L24I (designed binder) MTLQELLREEALRRAEAEAFRYAIELLAEKFPEQKEYLLDLAEEIESQIRSLSGVDVEDVRKFLDKEWAWVKELLAEHPAELAEVEAARAARLAELRAEVEAKVAA
1.4	P32M (designed binder) MTLQELLREEALRRAEAEAFRYALELLAEKFMEQKEYLLDLAEEIESQIRSLSGVDVEDVRKFLDKEWAWVKELLAEHPAELAEVEAARAARLAELRAEVEAKVAA
0.593	A42I (designed binder) MTLQELLREEALRRAEAEAFRYALELLAEKFPEQKEYLLDLIEEIESQIRSLSGVDVEDVRKFLDKEWAWVKELLAEHPAELAEVEAARAARLAELRAEVEAKVAA
0.718	E73I (designed binder) MTLQELLREEALRRAEAEAFRYALELLAEKFPEQKEYLLDLAEEIESQIRSLSGVDVEDVRKFLDKEWAWVKILLAEHPAELAEVEAARAARLAELRAEVEAKVAA
0.956	E99M (designed binder) MTLQELLREEALRRAEAEAFRYALELLAEKFPEQKEYLLDLAEEIESQIRSLSGVDVEDVRKFLDKEWAWVKELLAEHPAELAEVEAARAARLAELRAMVEAKVAA
12.5	F63Y (designed binder) MTLQELLREEALRRAEAEAFRYALELLAEKFPEQKEYLLDLAEEIESQIRSLSGVDVEDVRKYLDKEWAWVKELLAEHPAELAEVEAARAARLAELRAEVEAKVAA
0.593	E33W (designed binder) MTLQELLREEALRRAEAEAFRYALELLAEKFPWQKEYLLDLAEEIESQIRSLSGVDVEDVRKFLDKEWAWVKELLAEHPAELAEVEAARAARLAELRAEVEAKVAA
0.446	E101Y (designed binder) MTLQELLREEALRRAEAEAFRYALELLAEKFPEQKEYLLDLAEEIESQIRSLSGVDVEDVRKFLDKEWAWVKELLAEHPAELAEVEAARAARLAELRAEVYAKVAA
0.539	H78A (designed binder) MTLQELLREEALRRAEAEAFRYALELLAEKFPEQKEYLLDLAEEIESQIRSLSGVDVEDVRKFLDKEWAWVKELLAEAPAELAEVEAARAARLAELRAEVEAKVAA
0.593	M1E (designed binder) ETLQELLREEALRRAEAEAFRYALELLAEKFPEQKEYLLDLAEEIESQIRSLSGVDVEDVRKFLDKEWAWVKELLAEHPAELAEVEAARAARLAELRAEVEAKVAA
0.539	W68F (designed binder) MTLQELLREEALRRAEAEAFRYALELLAEKFPEQKEYLLDLAEEIESQIRSLSGVDVEDVRKFLDKEFAWVKELLAEHPAELAEVEAARAARLAELRAEVEAKVAA
0.539	R21S (designed binder) MTLQELLREEALRRAEAEAFSYALELLAEKFPEQKEYLLDLAEEIESQIRSLSGVDVEDVRKFLDKEWAWVKELLAEHPAELAEVEAARAARLAELRAEVEAKVAA
0.869	F31G (designed binder) MTLQELLREEALRRAEAEAFRYALELLAEKGPEQKEYLLDLAEEIESQIRSLSGVDVEDVRKFLDKEWAWVKELLAEHPAELAEVEAARAARLAELRAEVEAKVAA
0.335	R13Y (designed binder) MTLQELLREEALYRAEAEAFRYALELLAEKFPEQKEYLLDLAEEIESQIRSLSGVDVEDVRKFLDKEWAWVKELLAEHPAELAEVEAARAARLAELRAEVEAKVAA
0.869	K66I (designed binder) MTLQELLREEALRRAEAEAFRYALELLAEKFPEQKEYLLDLAEEIESQIRSLSGVDVEDVRKFLDIEWAWVKELLAEHPAELAEVEAARAARLAELRAEVEAKVAA
0.593	M1F (designed binder) FTLQELLREEALRRAEAEAFRYALELLAEKFPEQKEYLLDLAEEIESQIRSLSGVDVEDVRKFLDKEWAWVKELLAEHPAELAEVEAARAARLAELRAEVEAKVAA
